According to the supplement of paper PMC12764529:
± gives the half width of the 95% confidence interval.

Assay: folding stability dG unfold from trypsin proteolysis; higher = more stable
In short: (§1)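 Bayesian fitting of sequencing counts gave K50 for each design. Unfolding free energy followed by setting this against a sequence-predicted unfolded-state K50 and a shared folded-state K50, either per protease or with trypsin and chymotrypsin combined. The designs, under 80 residues and lacking cysteine, were digested in a PA-tagged cDNA display format at 11 threefold-diluted protease concentrations and without protease, and only those with AlphaFold2 dimer inter-PAE above 15 were kept.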

Sequence | folding stability dG unfold [kcal/mol]
SAGGSASMIFADDPAQAEAYVKPLFPNGPPFDIVELSEEEGKELVEKLKKEGKPYKVIVIKDPSKPSAGGSA [r15_567_JUSTAS] | 0.192 ± 0.19
SAGGSAGGSAGGPNHYVMATETIEFEFEIRTRNEDGKPQEIKIKFTLTVIRMFPLPPGDPSAGGSAGGSAGG [r7_926_TrROS] | 3.36 ± 0.42
SAGGSAGGSAGAPTVKLTFTVTRTETKTETLPDGTTKTETKTETRTVTLTLAPGETITVTSAGGSAGGSAGG [r11_174_TrROS_Hall] | 3.39 ± 0.084
SAGSKTITLEFNFEELKVKVTVTYDPEGEPTVTVTTTIYAKGGEKLETKTTTVTASPDDPVVKAFLESSSAG [r5_964_JUSTAS] | 2.19 ± 0.041
SMNIVEIEVEEKIIGDTTTITIPIKVNGPAVSEEEIKKIVEDIFKKKGLKINIKIEKDPNSGVITITIIESA [r9_717_JUSTAS] | 2.01 ± 0.15
SAGGSVDVSYDPSTGVVTVTIPSPTGSIGEEEVERVARELKEKYPNVTVSFTPSPGPAVTVTITIPGGSAGG [r13_291_JUSTAS] | 1.71 ± 0.07
SAGGSAMPLEELKKVTITLSFYNENGELVAEMTLEYDEETDVFTMTVKVRYNGKTYTVEMEFKLLPSAGGSA [r15_278_TrROS_Hall] | 4.5 ± 0.56
SAGGMIVIEKEEDGFYRITIRNKETGEEVEEIPISKEELEELLKEAEENMSLEEIAEKLGLEIEIEKVSAGG [r13_836_TrROS_Hall] | 1.68 ± 0.047
SAGGSAGGSMKITINKWDPDNGNIMVTIQMPGQPVEIMIPWNNVDKLLEKLPFPGMKIDEIYPSAGGSAGGS [r12_23_TrROS] | 1.11 ± 0.1
SAGGSAKPKITITVTYDKETNTVTVTITFPDGTTLTITVEAETEEEAKKAAKKLVEELLKKLEELESAGGSA [r15_477_TrROS_Hall] | 3.46 ± 0.27
SAGKEKEVKEVTIKIKIYVTNKNGEKKEITIEVKAKNKEDLLEALKKLGLSVEELKEKFPNIKIVEIEPSAG [r5_430_TrROS_Hall] | 2.3 ± 0.22
SAGGSAGGSAGMKTSVTTPVTLPDGTPAVVTKYDGEVEIIDTGDGTSKVVPLSEVPPKLLSAGGSAGGSAGG [r11_155_JUSTAS] | 0.678 ± 0.035
SAGGSAEIEGLEFEIVEVTEVRVLPDGTVEITLRVRLPDGSYLRITITVSPDGTVTIDIELLPADESAGGSA [r15_559_TrROS_Hall] | 4.51 ± 0.21
SPVLEKIRKLVEELLKKLGIEVKEGETVEIEITLPDGSTIRITFDAKTKKITVEITIDGKKVTLTLEIKPSA [r9_426_TrROS_Hall] | 4.2 ± 0.3
SAGGSAPGEPIFIRWKIEHPNGNPWTIPFPIKTEEQALEQAIRFAESIAKKLGNPNVKIKIDEIIPSAGGSA [r15_698_TrROS] | 1.11 ± 0.12
SGATLFIGRFPGEGTLIAVAKLPNGKEIVISFGNYPEGIAGIAALARELDPRAEIKHIELVPPDSVPPEFSA [r9_137_TrMRF] | 1.37 ± 0.038
SAGKKVKINIKLPEGAKVTKIEFDKKTKTIKITIYDKNGKKVLEMTFVYKDKNGKYKIVKKITVYLKKPSAG [r5_434_TrROS_Hall] | 2.97 ± 0.27
SAGGSAGGSKFKIVSIEVTVETNEDGSKTLTVKIRLEDGSEITITVPENATLEEVLKLLKELASAGGSAGGS [r12_1047_TrROS_Hall] | 3.88 ± 0.2
SAGGRAVLLATFTTPDGSLVLVYEDPATGRVLVVSFDPSTGRVSVLRLRRVPNTGDLFIEDRATFPLSSAGG [r19_249_TrMRF] | 3.51 ± 0.059
SAGGMLGFRAETDLFVEPIPPGAEVEPLRIGDRLLLIVRHPDGSYTINLFTPVRPLPVPPAFSTANAASAGG [r13_804_TrMRF] | 1.6 ± 0.036
SAGGSAGGSAGKKKLRLTLPGAEVEYDAATNELTIRLKAPPPPPKTTTKVETKTVLLPGKSAGGSAGGSAGG [r11_149_TrROS_Hall] | 0.792 ± 0.076

Sequence | folding stability dG unfold [kcal/mol]
SAGGSAGGSNWVEIDIPHDDGRDIKITMWPDGYMQIEYPNGKPVYEIPVPPNMSIDEIAERILSAGGSAGGS [r12_990_TrROS] | 0.641 ± 0.045
SPEIKIELVYDEETEELYLEIEIRFPESEEEAIEALKKLLEELGFEVVEIEEIEVEEDGTVRIRVRIRKKSA [r9_876_TrROS_Hall] | 4.87 ± 0.31
SAGGKIPPGMKLEIEDINIEFYNNGWIKITVKMTIWAPDGKTMTMTMTIVIPIRPPPPPPNDPENNESAGGS [r8_90_TrROS] | 3.91 ± 0.45
SAGGELIEKAIEEALENGEEVEIEVVLRDENGELYRIRIRVRRERLPDGEVKTEIEIEIERFPLPEESAGGS [r16_323_TrROS_Hall] | 4.28 ± 0.2
SAGGKKKITITIEEVEELENGPLVYRVTIEVDGKTYEILIEADSLEEAKAAAEKLAEELNVEVTIEPVSAGG [r13_750_TrROS_Hall] | 2.55 ± 0.097
SAIPINLPPGDKVKITFRNPDGSRMEIEFDPENGKWKVKMRPNDGKKQEQTIPAGNLDDLPPGVYSIEPVSA [r9_1110_TrROS] | 1.08 ± 0.16
SRTIENPDNGIKITVDRVPGGRYRVHIFNPGGKPIHEREIPDMPIPPGDTREIKIPIKGLPPGMYLMLEPWS [r1_263_TrROS] | 0.502 ± 0.16
SAGGMVEREFTLDGTRITITYVPSEGVILATFPDRTVTVPVPESLKDKSPEEVIELAKEFAKEYLESSAGGS [r16_215_JUSTAS] | 4.14 ± 0.16
SAGGSAGGSMTAEEIAEKFPGLPPEQIKNIPIERHPDGYMTVNIEHRGPNGNKQEQQVEIPVDSAGGSAGGS [r12_1050_TrROS] | 0.509 ± 0.04
SAGGSAGGSKKKNKPAPPVLVVKVEIVKIELSDEELEAIKKNKEKIKEIYLIKIEVTLVEPEESAGGSAGGS [r12_196_TrROS_Hall] | 1.17 ± 0.11
SAGGSAGGSMTITVTKVDFPPGLYEGLTIEELRKLLGDENLPIKETPVTVTVTPEKLAALLLSSAGGSAGGS [r12_178_JUSTAS] | 1.69 ± 0.036
SAGGSAGGSAGVSFVVDALFVDPNTNEVYHGHIEFYDDGTAKITLTNQNGKTKTFTFPVLFSAGGSAGGSAG [r3_61_TrMRF] | 2.73 ± 0.14
SAGGMGLEELAKLSPEEIARRLAAEAKAAAAAAGTPDAAVTLEVTLEDKPIVVEVGADGTIRRVELGSAGGS [r16_431_JUSTAS] | 0.442 ± 0.1
SAGGMKVTVTEDGSSSKVTITIKDPKTGIEKTYTATATVLPDGTVVYTITYPDGSKKTIPSSELELSSAGGS [r16_154_JUSTAS] | 2.11 ± 0.087
SAMTTTETFEEGDYVYTVITTKIPSSLPPDSVVTIPVTTPLGAESEVVSEPGGTITVKVRLKKEDPELLSAG [r14_754_JUSTAS] | -1.57 ± 0.3
SAGGSALPPGQEVEITIMIMVMIYNPENGRMWMVMASVEIEIRVDPKNGKLEIKIKKISISIFPMDSAGGSA [r15_517_TrROS] | 4.23 ± 0.72
SAGGGIAEILEIREFEDGVEILILTDDLDDPEIIEELIDEIAEELGLPKEKIRAHIIPADIPPLPDEESAGG [r13_430_TrMRF] | 1.22 ± 0.061
SAGGSVKQIALRIARDMGYPNVKVEEIPIEKTPNGWVQIPITVEHPKDGKPIGPFQIHIRPGDPIVSAGGSA [r2_137_TrROS] | 1.17 ± 0.24
SETVEIEIELPDGTKVTITVDKDGKVHITIEVPEDNPELLEKGSIEELAKKLAEELGLSEKDVEVTVLPPSA [r9_401_TrROS_Hall] | 2.98 ± 0.29
SAGMTFEVRYPLPPGQTHKEAREEVKDMVESIAREFMPEGWKIEPKDIDVDPDKGWIEYKVDIEIPPGMSAG [r5_146_TrROS] | 1.19 ± 0.12

Assay: folding stability dG unfold from chymotrypsin proteolysis; higher = more stable
In short: as §1

Sequence | folding stability dG unfold [kcal/mol]
SAGGSASMIFADDPAQAEAYVKPLFPNGPPFDIVELSEEEGKELVEKLKKEGKPYKVIVIKDPSKPSAGGSA [r15_567_JUSTAS] | 0.507 ± 0.42
SAGGSAGGSAGGPNHYVMATETIEFEFEIRTRNEDGKPQEIKIKFTLTVIRMFPLPPGDPSAGGSAGGSAGG [r7_926_TrROS] | 5.03 ± 0.26
SAGGSAGGSAGAPTVKLTFTVTRTETKTETLPDGTTKTETKTETRTVTLTLAPGETITVTSAGGSAGGSAGG [r11_174_TrROS_Hall] | 4.27 ± 0.077
SAGSKTITLEFNFEELKVKVTVTYDPEGEPTVTVTTTIYAKGGEKLETKTTTVTASPDDPVVKAFLESSSAG [r5_964_JUSTAS] | 3.16 ± 0.084
SMNIVEIEVEEKIIGDTTTITIPIKVNGPAVSEEEIKKIVEDIFKKKGLKINIKIEKDPNSGVITITIIESA [r9_717_JUSTAS] | 2.55 ± 0.12
SAGGSVDVSYDPSTGVVTVTIPSPTGSIGEEEVERVARELKEKYPNVTVSFTPSPGPAVTVTITIPGGSAGG [r13_291_JUSTAS] | 2.24 ± 0.042
SAGGSAMPLEELKKVTITLSFYNENGELVAEMTLEYDEETDVFTMTVKVRYNGKTYTVEMEFKLLPSAGGSA [r15_278_TrROS_Hall] | 5.29 ± 0.2
SAGGMIVIEKEEDGFYRITIRNKETGEEVEEIPISKEELEELLKEAEENMSLEEIAEKLGLEIEIEKVSAGG [r13_836_TrROS_Hall] | 0.971 ± 0.023
SAGGSAGGSMKITINKWDPDNGNIMVTIQMPGQPVEIMIPWNNVDKLLEKLPFPGMKIDEIYPSAGGSAGGS [r12_23_TrROS] | 0.718 ± 0.23
SAGGSAKPKITITVTYDKETNTVTVTITFPDGTTLTITVEAETEEEAKKAAKKLVEELLKKLEELESAGGSA [r15_477_TrROS_Hall] | 3.4 ± 0.2
SAGKEKEVKEVTIKIKIYVTNKNGEKKEITIEVKAKNKEDLLEALKKLGLSVEELKEKFPNIKIVEIEPSAG [r5_430_TrROS_Hall] | 4.05 ± 0.22
SAGGSAGGSAGMKTSVTTPVTLPDGTPAVVTKYDGEVEIIDTGDGTSKVVPLSEVPPKLLSAGGSAGGSAGG [r11_155_JUSTAS] | 0.422 ± 0.076
SAGGSAEIEGLEFEIVEVTEVRVLPDGTVEITLRVRLPDGSYLRITITVSPDGTVTIDIELLPADESAGGSA [r15_559_TrROS_Hall] | 4.18 ± 0.1
SPVLEKIRKLVEELLKKLGIEVKEGETVEIEITLPDGSTIRITFDAKTKKITVEITIDGKKVTLTLEIKPSA [r9_426_TrROS_Hall] | 5.68 ± 0.72
SAGGSAPGEPIFIRWKIEHPNGNPWTIPFPIKTEEQALEQAIRFAESIAKKLGNPNVKIKIDEIIPSAGGSA [r15_698_TrROS] | 0.575 ± 0.44
SGATLFIGRFPGEGTLIAVAKLPNGKEIVISFGNYPEGIAGIAALARELDPRAEIKHIELVPPDSVPPEFSA [r9_137_TrMRF] | 1.49 ± 0.11
SAGKKVKINIKLPEGAKVTKIEFDKKTKTIKITIYDKNGKKVLEMTFVYKDKNGKYKIVKKITVYLKKPSAG [r5_434_TrROS_Hall] | 4.19 ± 0.068
SAGGSAGGSKFKIVSIEVTVETNEDGSKTLTVKIRLEDGSEITITVPENATLEEVLKLLKELASAGGSAGGS [r12_1047_TrROS_Hall] | 4.42 ± 0.051
SAGGRAVLLATFTTPDGSLVLVYEDPATGRVLVVSFDPSTGRVSVLRLRRVPNTGDLFIEDRATFPLSSAGG [r19_249_TrMRF] | 4.36 ± 0.12
SAGGMLGFRAETDLFVEPIPPGAEVEPLRIGDRLLLIVRHPDGSYTINLFTPVRPLPVPPAFSTANAASAGG [r13_804_TrMRF] | 1.64 ± 0.069
